According to patent US20250340659A1 (PETMEDIX, published 2025):
Positions count from the first letter of the chain named. Values belong to the binder of their own block, whether it stands above or below them.

Key:
[1] = target: T1, canine OX40L, full length membrane form, expressed on HEK293 cells (canine); test: cell-based or functional assay
T1 chain: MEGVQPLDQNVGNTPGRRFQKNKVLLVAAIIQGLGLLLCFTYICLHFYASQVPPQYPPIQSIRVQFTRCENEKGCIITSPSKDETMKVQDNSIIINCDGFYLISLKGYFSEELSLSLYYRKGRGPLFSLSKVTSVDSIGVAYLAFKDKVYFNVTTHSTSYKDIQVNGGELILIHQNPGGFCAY

[2] = target: T1, canine OX40L, full length membrane …; test: flow cytometry
Procedure: (§1) CHO supernatants diluted in FACS buffer (PBS containing 3% FBS) at 1, 5 or 10 μg/ml were used to screen for their binding capacity to canine OX40L using a cell-based assay. In brief, HEK293 or MEF cells (or any other commonly used cell lines) expressing canine OX40L at the cell surface are incubated with 100 μll of FACS buffer containing the candidate antibody for 30′ on ice. Cells are washed with 150 μl FACS buffer followed by centrifugation at 300 g for 3 min. The cell pellet is resuspended in FACS buffer containing a 1:1000 dilution of a fluorescently labelled secondary antibody recognising the canine Fc region of the test antibody for 30 min in the dark, followed by washing with 150 μl FACS buffer. Cells are resuspended in FACS buffer and flow cytometry performed using either a […] cytometer, followed by data analysis using FlowJo (FIG. 6 and Table 4).

[3] = target: T1, canine OX40L, full length membrane …; test: flow cytometry, OX40L HEK minus WT HEK
Procedure: as §1

[4] = target: T2, recombinant canine OX40L ECD-TNCc-HIS protein (canine); test: SPR Koff (kd1)
T2 construct: also called Trimeric OX40L probe (HIS tag); trimeric canine OX40L
T2 chain: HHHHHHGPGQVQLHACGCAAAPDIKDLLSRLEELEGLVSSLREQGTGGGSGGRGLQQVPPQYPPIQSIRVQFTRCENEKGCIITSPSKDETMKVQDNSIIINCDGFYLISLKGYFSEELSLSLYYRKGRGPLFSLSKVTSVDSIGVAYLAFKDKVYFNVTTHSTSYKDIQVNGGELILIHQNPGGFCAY
Procedure: (§2) Affinity (Kd) of OX40L antibodies is measured by SPR, using a recombinant canine OX40L ECD-TNCc-HIS protein (Seq ID 811) as the capturing agent (FIG. 5B).
(§3) Functional affinity is determined using a Biakore 8K (Cytiva). in brief, purified OX40L ECD-TNCc-HIS protein is covalently bound at low density to the surface of a CM5 sensor chip (Cytiva) by amine coupling, using the manufacturer's recommended protocol. Candidate antibodies are subsequently passed across the chip surface at a range of concentrations and affinity determined using the dedicated software (Biacore Insight Evaluation Software). Curves were fitted using a bivalent analyte binding model.

[5] = target: T2, recombinant canine OX40L ECD-TNCc-HIS …; test: SPR KD1, bivalent analyte model
Procedure: as §2, §3

[6] = target: T2, recombinant canine OX40L ECD-TNCc-HIS …; test: SPR Koff (kd2)
Procedure: as §2, §3

- % Signal Inhibition Average [1]: 73.3%
- % Signal Inhibition Rep1 [1]: 95.9%
- % Signal Inhibition Rep2 [1]: 70.3%
- % Signal Inhibition Rep3 [1]: 53.6%
- GEO mean OX40L expressing HEK [2]: 463000
- GEO mean difference [3]: 459000
B1: PMX291 (antibody, V domains shown)
VH: EVQLVESGGDLLKPGGSLRLSCVASGFPFRNYDMTWVRQAPGKGLQWVAAIHYDGSNTYYTDAVKGRFTISRDNARNTVFLQMNSLRAEDTAVYYCAKKFNNYRPFDYWGQGTLVTVSS
VL: DIVMTQTPPSLSVSPRETPSISCKASQSLLRSDGNTYLEWYLQKPGQSPQLLIYLVSNRFTGVSDRFSGSGSGTDFTLRISRVEANDAGVYYCGQGTQLPWTFGAGTKVELK

- % Signal Inhibition Average [1]: 46.9%
- % Signal Inhibition Rep1 [1]: 43.8%
- % Signal Inhibition Rep2 [1]: 56.2%
- % Signal Inhibition Rep3 [1]: 40.8%
- GEO mean OX40L expressing HEK [2]: 839000
- GEO mean difference [3]: 826000
B2: PMX085 (antibody, V domains shown)
VH: EVKLVESGGDLVKPEGSLRLSCVVSGFTFSRYGMSWVRQAPGKGLQWVAYISSDGRSSSYTDAVQGRFTISSDNAKNTLYLQMNSLTTEDTAVYYCAKLGRGFNFNFWGQGTLVTVSS
VL: SYVLTQLPSKNVTLKQPAHITCGGDNIGSKSVHWYQQKLGQAPVLIIYYDSSRPTGIPERFSGANSGNTATLTISGALAEDEADYYCQVWDSSASVFGGGTHLTVL
notes: also called PMX85

- % Signal Inhibition Average [1]: 18.3%
- % Signal Inhibition Rep1 [1]: 5.85%
- % Signal Inhibition Rep2 [1]: 35.1%
- % Signal Inhibition Rep3 [1]: 14%
- GEO mean OX40L expressing HEK [2]: 857000
- GEO mean difference [3]: 849000
B3: PMX086 (antibody, V domains shown)
VH: EVQLVESGGDLVKPGGSLRLSCVASGFTFSSYHMSWVRQAPGKGLQWVAFINSAESSTTYADAVKGRFTISRDNAKNTLYLQMNSLRAEDTAVYYCAGGYIWTHFDYWGQGTLVTVSS
VL: SYVLTQLPSVSVTLRQTARITCGGDIIGSKSVYWYQQNLGQAPVLIIYRDTNRPTGIPERFSGASSGNTATLTISGALAEDEADYYCQVWDSSTSVFGGGTHLTVL

- % Signal Inhibition Average [1]: 72.6%
- % Signal Inhibition Rep1 [1]: 87.9%
- % Signal Inhibition Rep2 [1]: 61.7%
- % Signal Inhibition Rep3 [1]: 68.3%
- koff [4]: 0.0129 s⁻¹
- GEO mean OX40L expressing HEK [2]: 2.83e+06
- Kd [5]: 195 nM
- koff [6]: 0.00169 s⁻¹
- GEO mean difference [3]: 2.81e+06
B4: PMX025 (antibody, V domains shown)
VH: EVHLVESGGDLVKPGGSLRLSCVASGFTFSSYHMSWVRQAPGKGLQWVAFINAGEISTNYADAVKGRFTISRDNAKNILYLQMNSLRAEDTAVYYCASGHIWIRPFDYWGQGTLVTVSS
VL: SYVLTQLPSMSVTLRQTARITCEGDSIGRKRVNWYQQKLGQVPVLIIYDDDSRPSGIPERFSGANSGNTATLTISGALAEDEAEYYCQVWDSSNNWVFGEGTQLTVL
notes: also called PMX25

- % Signal Inhibition Average [1]: 45%
- % Signal Inhibition Rep1 [1]: 40.4%
- % Signal Inhibition Rep2 [1]: 55%
- % Signal Inhibition Rep3 [1]: 39.8%
- koff [4]: 0.00147 s⁻¹
- Kd [5]: 14.1 nM
- koff [6]: 1.03 s⁻¹
B5: PMX098 (antibody, V domains shown)
VH: EVQLVESGGDLVKPGGSLRLSCVASGFTFNTYHMNWVRQAPGKGLHWVAFINSGGSGTSYADTVKGRFTISRDYAKNTLYLQMNSLRAEDTAVYYCASGSIWTHFDYWGQGTLVTVSS
VL: SYVLTQLPSVSLTLRQTAHITCGGDIIGSKSVYWYQQKLGQAPVLIIYRDNNRPTGIPERFSGASSGNTATLTISGALAEDEADYYCQVWDSSTQAMFGGGTHLTVL

- % Signal Inhibition Average [1]: 37.4%
- % Signal Inhibition Rep1 [1]: 55.2%
- % Signal Inhibition Rep2 [1]: 43.1%
- % Signal Inhibition Rep3 [1]: 13.7%
- GEO mean OX40L expressing HEK [2]: 31900
- GEO mean difference [3]: 28400
B6: PMX110 (antibody, V domains shown)
VH: B3 VH with K13R, A54G, E55G, A63V, K65R, N74Y, G98S, Y100S, W102L
VL: B5 VL with Y2F, L12V, H19R, I26S, I27V, N51S, S92N, T94N, Q95K

- % Signal Inhibition Average [1]: 31%
- % Signal Inhibition Rep1 [1]: 31%
- % Signal Inhibition Rep2 [1]: 28.1%
- % Signal Inhibition Rep3 [1]: 33.9%
- koff [4]: 0.00174 s⁻¹
- Kd [5]: 17.6 nM
- koff [6]: 1.23 s⁻¹
B7: PMX104 (antibody, V domains shown)
VH: EVQLVESGGDLVRPGGSLRLSCVASGFTFSNYHMSWVRQAPGKGLQWVAFINSGGTSTTYADAVRGRFTTSRDYAKNTLYLQMNSLRAEDTAVYYCTSGSIWTHFDYWGQGTLVTVSS
VL: B5 VL with Y2F, L12V, H19R, Y35F, V44I, N51D, T73I, D84H, T94S, Q95K

- % Signal Inhibition Average [1]: 32.6%
- % Signal Inhibition Rep1 [1]: 29.8%
- % Signal Inhibition Rep2 [1]: 46.2%
- % Signal Inhibition Rep3 [1]: 21.6%
- GEO mean OX40L expressing HEK [2]: 1.05e+06
- GEO mean difference [3]: 1.04e+06
B8: PMX087 (antibody, V domains shown)
VH: B5 VH with Q3H, N30S, T31N, N35S, H46Q, T63A, N77S, S100Y
VL: B3 VL with S31N, N38K, V44I, T51S

- % Signal Inhibition Average [1]: 7.21%
- % Signal Inhibition Rep1 [1]: 17%
- % Signal Inhibition Rep2 [1]: 3.51%
- % Signal Inhibition Rep3 [1]: 1.17%
- GEO mean OX40L expressing HEK [2]: 783000
- GEO mean difference [3]: 775000
B9: PMX088 (antibody, V domains shown)
VH: B5 VH with S56T, S59G, A61S, A97V
VL: B5 VL with L12M, N51T, S93N, M97V

- % Signal Inhibition Average [1]: 38.9%
- % Signal Inhibition Rep1 [1]: 44.2%
- % Signal Inhibition Rep2 [1]: 37.4%
- % Signal Inhibition Rep3 [1]: 35.2%
- GEO mean OX40L expressing HEK [2]: 647000
- GEO mean difference [3]: 643000
B10: PMX111 (antibody, V domains shown)
VH: B7 VH with N31S, S35N, G55A, T56S, T58A, A63V, T70I, T97A, Y107F
VL: B5 VL with Y2F, L12V, H19R, I26S, I27V, N51S, S92N, T94N, Q95K

- % Signal Inhibition Average [1]: -5.31%
- % Signal Inhibition Rep1 [1]: 7.14%
- % Signal Inhibition Rep2 [1]: 20.9%
- % Signal Inhibition Rep3 [1]: -44%
- GEO mean OX40L expressing HEK [2]: 58800
- GEO mean difference [3]: 55200
B11: PMX107 (antibody, V domains shown)
VH: B7 VH with E1A, N31S, S35N, T56S, A63V, T70I, Y80F, T97A, S98I, G99V
VL: B5 VL with Y2F, L12V, H19R, S31N, K38R, I47L, N51T, S92N, T94N, Q95K

- % Signal Inhibition Average [1]: 60.8%
- % Signal Inhibition Rep1 [1]: 56.1%
- % Signal Inhibition Rep2 [1]: 73.1%
- % Signal Inhibition Rep3 [1]: 53.2%
- koff [4]: 7.16e-05 s⁻¹
- Kd [5]: 0.492 nM
- koff [6]: 0.744 s⁻¹
B12: PMX097 (antibody, V domains shown)
VH: B7 VH with F27I, N31S, F50L, T56S, T58I, A63V, T70I, T97A, L113R
VL: B5 VL with Y2F, L12V, H19R, S31N, K38R, N51S, S92N, T94N, Q95K
notes: also called PMX97

- % Signal Inhibition Average [1]: 82.2%
- % Signal Inhibition Rep1 [1]: 95.6%
- % Signal Inhibition Rep2 [1]: 89.8%
- % Signal Inhibition Rep3 [1]: 61.3%
- GEO mean OX40L expressing HEK [2]: 611000
- GEO mean difference [3]: 607000
B13: PMX108 (antibody, V domains shown)
VH: B7 VH with S30T, T56S, A61T, A63V, T70I, R87T, T97A, S100A, Y107H
VL: B5 VL with Y2F, L12V, H19R, I26S, I27V, N51S, S92N, T94N, Q95K, M97I

- % Signal Inhibition Average [1]: 53.3%
- % Signal Inhibition Rep1 [1]: 67.9%
- % Signal Inhibition Rep2 [1]: 69.5%
- % Signal Inhibition Rep3 [1]: 22.5%
- GEO mean OX40L expressing HEK [2]: 633000
- GEO mean difference [3]: 629000
B14: PMX109 (antibody, V domains shown)
VH: B7 VH with S30T, T56S, A61T, A63V, T70I, R87T, T97A, Y107H
VL: B5 VL with Y2F, L12V, H19R, I26S, I27V, N51S, S92N, T94N, Q95K, M97I

- % Signal Inhibition Average [1]: 71.6%
- % Signal Inhibition Rep1 [1]: 97.5%
- % Signal Inhibition Rep2 [1]: 54.4%
- % Signal Inhibition Rep3 [1]: 62.9%
- GEO mean OX40L expressing HEK [2]: 471000
- GEO mean difference [3]: 467000
B15: PMX292 (antibody, V domains shown)
VH: AVQLVESGGDLVRPGGSLRLSCVASGFTFSNFDMYWVRQAPGRGLQWVATISYDGFNTYSTDTVRGRFTISRDNARNTVYLQMNSLRVEDTAVFYCTARRFGLGYWGQGTLVTVSS
VL: DIFMAQTPPSLSVSPRETASISCKASQSLLHSDGNTYLDWYLQKPGQSPQLLIYLVSNRFPGVSDRFSGSGSGTGFTLRISRVEASDTGVYYCGQGTQLPYTFSQGTKLEIK
